Residue numbers refer to the chain shown, from its start.
T1: non-phosphorylated C-terminal TDP-43 peptide NAGSGSGFNGGFGSSMDSKSSGWGM (human, N-terminally biotinylated)
T1 construct: Synthetic biotinylated peptide captured on streptavidin plates; also called non-phosphorylated TDP-43
T1 peptide: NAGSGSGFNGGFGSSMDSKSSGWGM

B1: anti-TDP43 clone C, full-length human IgG1 format (antibody, V domains shown)
VH: QVQLVQSGAEVKKPGASVKVSCKASGFTFTEYSMHWVRQAPGQGLEWMGGINPNNGGTSYNQKFQGRVTMTRDTSTSTVYMELSSLRSEDTAVYYCARESWGQGTLVTVSS
VL: DIVMTQSPLSLPVTPGEPASISCKSSQSLLHSDGKTYLNWYLQKPGQSPQLLIYLGSNRASGVPDRFSGSGSGTDFTLKISRVEAEDVGVYYCFQGTHFPHTFGGGTKVEIK
notes: Tested as full-length human IgG1
B2: anti-TDP43 clone G, full-length human IgG1 format (antibody, V domains shown)
VH: B1 VH with R98S
VL: B1 VL with G56V, N58K, R59L, A60K, F94M
notes: as for B1
B3: anti-TDP43 clone I, full-length human IgG1 format (antibody, V domains shown)
VH: B1 VH with S59I
VL: B1 VL with F94M
notes: as for B1
B4: anti-TDP43 clone C, scFv format (scFv)
scFv: QVQLVQSGAEVKKPGASVKVSCKASGFTFTEYSMHWVRQAPGQGLEWMGGINPNNGGTSYNQKFQGRVTMTRDTSTSTVYMELSSLRSEDTAVYYCARESWGQGTLVTVSSGGGGSGGGGSGGGGSDIVMTQSPLSLPVTPGEPASISCKSSQSLLHSDGKTYLNWYLQKPGQSPQLLIYLGSNRASGVPDRFSGSGSGTDFTLKISRVEAEDVGVYYCFQGTHFPHTFGGGTKVEIK
B5: anti-TDP43 clone B, scFv format (scFv)
scFv: B4 scFv with Y32L, G182A, N184R
notes: also called VecTab B (as AAV5.2-encoded scFv)
B6: anti-TDP43 clone G, scFv format (scFv)
scFv: B4 scFv with R98S, G182V, N184K, R185L, A186K, F220M
notes: also called VecTab G (as AAV5.2-encoded scFv)
B7: anti-TDP43 clone I, scFv format (scFv)
scFv: B4 scFv with S59I, F220M
notes: also called VecTab I (as AAV5.2-encoded scFv)
B8: anti-TDP43 clone O, full-length human IgG1 format (antibody, V domains shown)
VH: QVQLVQSGAEVKKPGASVKVSCKASGYTFTKYWMHWVRQAPGQGLEWMGEINPKNGRTNYNQKFQGRVTMTRDTSTSTVYMELSSLRSEDTAVYYCWRYMDYWGQGTLVTVSS
VL: DIVMTQSPLSLPVTPGEPASISCRSSQSLLHSNGYNYLDWYLQKPGQSPQLLIYKVSNRFSGVPDRFSGSGSGTDFTLKISRVEAEDVGVYYCLQHTHWPPTFGGGTKVEIK
notes: as for B1
B9: anti-TDP43 clone X, full-length human IgG1 format (antibody, V domains shown)
VH: B8 VH with K31S, Y32H, W33Y, M34L, E50I, K54S
VL: B8 VL with K55E
notes: as for B1
B10: anti-TDP43 clone S, scFv format (scFv)
scFv: QVQLVQSGAEVKKPGASVKVSCKASGYTFTKYWMHWVRQAPGQGLEWMGEINPSNGRTNYPQKFQGRVTMTRDTSTSTVYMELSSLRSEDTAVYYCWRYMDYWGQGTLVTVSSGGGGSGGGGSGGGGSDIVMTQSPLSLPVTPGEPASISCRSSQSLLHSNGYNYLDWYLQKPGQSPQLLIYKVSNRFTGVPDRFSGSGSGTDFTLKISRVEAEDVGVYYCMQHTHWPPAFGGGTKVEIK
notes: also called VecTab S (as AAV5.2-encoded scFv)
B11: anti-TDP43 clone X, scFv format (scFv)
scFv: B10 scFv with K31S, Y32H, W33Y, M34L, E50I, P61N, K183E, T189S, M222L, A230T

Key:
[1] = biological target: T1, non-phosphorylated C-terminal TDP-43 …; experiment: ELISA, biotinylated peptide on streptavidin plate, IgG1 format, anti-human IgG1 HRP
Method: (§1) The ability of clones to bind phosphorylated TDP-43 and/or non-phosphorylated TDP-43 was assessed using N-terminally biotinylated TDP-43 peptides having the following sequences: […] (SEQ ID NO: 218; non-phosphorylated); […] {PSER} SGWGM (SEQ ID NO: 219; phosphorylated S409); […] {PSER} GWGM (SEQ ID NO: 220; phosphorylated S410); and […] {PSER} {PSER} GWGM (SEQ ID NO: 221; phosphorylated S409/S410). Peptides were dissolved in 100% DMSO, aliquoted, and stored in −80° C. before use. Wells were incubated with 100 μL (5 μg/mL) of the peptides on streptavidin plates overnight at 4° C. The plates were then washed 3× in PBST wash buffer. Antibody clones B, C, G, I, O, S, U, and X, and non-binding controls (VRC07 for full-length IgG, and anti-methamphetamine clone 6H4 as control for the scFv experiments) were made in full-length human IgG₁ and scFv formats (IpA), and dilutions were prepared in blocking buffer (2% BSA). 100 μL/well of the dilutions were added to coated plates and the plates were incubated at RT for 1 hour. The plates were subsequently washed 3× with 250 μL/well wash buffer. 100 μL/well of primary antibody CEN63-C13 Rb-a-G4S (IpA) diluted in blocking buffer (2 μg/ml) was added and the plates were incubated for 1 hour at RT followed by 3× washing in PBST. For detection, 100 μL/well secondary antibodies (goat anti human IgG₁ HRP (Jackson ImmunoResearch) or goat anti-rabbit HRP for scFv (Promega)) diluted in blocking buffer (1:5000) was added to the wells and the plates were incubated for 1 hour at RT. The plates were subsequently washed 3× and 100 μL/well of TMB ready solution was added to the wells, followed by 3-4 minutes incubation in the dark. The reaction was stopped with 1M H₂SO₄ added to the wells (100 μL/well), and absorption measured on a GloMax plate reader (Promega) at […].

[2] = biological target: T1, non-phosphorylated C-terminal TDP-43 …; experiment: ELISA, biotinylated peptide on streptavidin plate, scFv format, rabbit anti-G4S and anti-rabbit HRP
Method: as §1

[3] = biological target: T1, non-phosphorylated C-terminal TDP-43 …; experiment: ELISA, biotinylated peptide on streptavidin plate, scFv format, rabbit anti-G4S and anti-rabbit HRP; profile referred to: less efficient at binding non-phosphorylated TDP-43
Method: as §1, with “100 μL/well of primary antibody CEN63-C13 Rb-a-G4S (IpA) diluted in blocking buffer (2 μg/ml) was added and the plates were incubated for 1 hour at RT followed by 3× washing in PBST. For detection, 100 μL/well secondary antibodies (goat anti human IgG₁ HRP (Jackson ImmunoResearch) or goat anti-rabbit HRP for scFv (Promega)) diluted in blocking buffer (1:5000) was added to the wells and the plates were incubated for 1 hour at RT.” left out

Binder | binding result [1] | binding result [2] | also measured
B1 | binds |  | 
B2 | binds |  | 
B3 | binds |  | 
B4 |  | binds | 
B5 |  | binds | 
B6 |  | binds | 
B7 |  | binds | 
B8 | binds |  | 
B9 | binds |  | 
B10 |  |  | binding result [3]: binds
B11 |  |  | binding result [3]: binds

Reference: US20260176307A1 (VECTORY THERAPEUTICS B V, published 2026)
